# Experimental data reported in the supplement of paper PMC10201428.
# ± gives the standard deviation of the averaged measurements.
# How the values were obtained:
# [1] = test system: VchCAST RNA-guided transposition machinery (E. coli BL21(DE3) host, lacZ target); assay: relative integration efficiency (T-RL orientation) vs wild-type transposon end (log2 (normalized fold change)); transposon end mutated: right end (5 bp flank + 75 bp right end); higher = more efficient transposition
# Summary of the method: (§1)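 A T7-driven effector plasmid encoding a CRISPR array, tniQ-cas8-cas7-cas6 and tnsA-tnsB-tnsC was co-transformed into E. coli BL21(DE3) together with a pUC57 mini-transposon donor holding barcoded pools of 1549 left-end or 1849 right-end variants. Transformants were plated with 0.1 mM IPTG at 37°C for 18 h. Illumina sequencing of PCR-amplified input plasmids and genomic integration junctions gave barcode abundances, and relative integration efficiency is their output/input fold change, normalised to reference barcodes and log-transformed.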
# [2] = test system: VchCAST RNA-guided transposition machinery (E. coli BL21(DE3) host, lacZ target); assay: relative integration efficiency (T-LR orientation) vs wild-type transposon end (log2 (normalized fold change)); transposon end mutated: right end (5 bp flank + 75 bp right end); higher = more efficient transposition
# Summary of the method: as §1
sequence,measurement,setting,value
ACATTTGTTGATACAACCATAAAATCATAATTACACCCATCAATTGATAATTATCCCACCCAATTTAACTATAACGCTCTGATCATAGTCAGACCAACATTGCTACGACCCGTATTCGCACCGACAC,relative integration efficiency (log2),[1],-3.92 ± 0.52
same,relative integration efficiency (log2),[2],-0.195 ± 0.066
ACATTTGTTGATACAACCATAAAATCATAATTACACCCATCAATTGATAATTATCCCACCCCATTTAACTATAACGCTCTGATCATAGTCAGACCAACATTGCTACGACCCGTATTCGCACCGACAC,relative integration efficiency (log2),[1],-4.292 ± 0.026
same,relative integration efficiency (log2),[2],-0.633 ± 0.39
ACATTTGTTGATACAACCATAAAATCATAATTACCCCCATAAATTGATAATTATCACACCCAATTTAACTATAACGCTCTGATCATAGTCAGACCAACATTGCTACGACCCGTATTCGCACCGACAC,relative integration efficiency (log2),[1],-3.09 ± 0.33
same,relative integration efficiency (log2),[2],0.699 ± 0.11
ACATTTGTTGATACAACCATAAAATCATAATTACCCCCATAAATTGATAATTATCACACCCCATTTAACTATAACGCTCTGATCATAGTCAGACCAACATTGCTACGACCCGTATTCGCACCGACAC,relative integration efficiency (log2),[1],-3.3 ± 0.19
same,relative integration efficiency (log2),[2],0.532 ± 0.1
ACATTTGTTGATACAACCATAAAATCATAATTACCCCCATAAATTGATAATTATCCCACCCAATTTAACTATAACGCTCTGATCATAGTCAGACCAACATTGCTACGACCCGTATTCGCACCGACAC,relative integration efficiency (log2),[1],-0.611 ± 0.71
same,relative integration efficiency (log2),[2],3.39 ± 0.37
ACATTTGTTGATACAACCATAAAATCATAATTACCCCCATAAATTGATAATTATCCCACCCCATTTAACTATAACGCTCTGATCATAGTCAGACCAACATTGCTACGACCCGTATTCGCACCGACAC,relative integration efficiency (log2),[1],-3.28 ± 0.32
same,relative integration efficiency (log2),[2],0.676 ± 0.046
ACATTTGTTGATACAACCATAAAATCATAATTACCCCCATCAATTGATAATTATCACACCCAATTTAACTATAACGCTCTGATCATAGTCAGACCAACATTGCTACGACCCGTATTCGCACCGACAC,relative integration efficiency (log2),[1],-5.12 ± 0.12
same,relative integration efficiency (log2),[2],-2.04 ± 0.46
ACATTTGTTGATACAACCATAAAATCATAATTACCCCCATCAATTGATAATTATCACACCCCATTTAACTATAACGCTCTGATCATAGTCAGACCAACATTGCTACGACCCGTATTCGCACCGACAC,relative integration efficiency (log2),[1],-5.34 ± 0.18
same,relative integration efficiency (log2),[2],-1.5 ± 0.28
ACATTTGTTGATACAACCATAAAATCATAATTACCCCCATCAATTGATAATTATCCCACCCAATTTAACTATAACGCTCTGATCATAGTCAGACCAACATTGCTACGACCCGTATTCGCACCGACAC,relative integration efficiency (log2),[1],-5.51 ± 0.13
same,relative integration efficiency (log2),[2],-1.33 ± 0.49
ACATTTGTTGATACAACCATAAAATCATAATTACCCCCATCAATTGATAATTATCCCACCCCATTTAACTATAACGCTCTGATCATAGTCAGACCAACATTGCTACGACCCGTATTCGCACCGACAC,relative integration efficiency (log2),[1],-5.42 ± 0.086
same,relative integration efficiency (log2),[2],-2.4 ± 0.19
ACATTTGTTGATACAACCATAAAATCATAATTCACCCATAAATTGATAATTATCACACCCACATTTAACTATAACGCTCTGATCATAGTCAGACCAACATTGCTACGACCCGTATTCGCACCGACAC,relative integration efficiency (log2),[1],-4.53 ± 0.24
same,relative integration efficiency (log2),[2],-0.0705 ± 0.067
ACATTTGTTGATACAACCATAAAATCATAATTCACCCCTAAATTGATAATTATCACACCCACATTTAACTATAACGCTCTGATCATAGTCAGACCAACATTGCTACGACCCGTATTCGCACCGACAC,relative integration efficiency (log2),[1],-6.26 ± 0.19
same,relative integration efficiency (log2),[2],-1.89 ± 0.27
ACATTTGTTGATACAACCATAAAATCATCATTACACCCATAAATTGATAATTATCACACCCAATTTAACTATAACGCTCTGATCATAGTCAGACCAACATTGCTACGACCCGTATTCGCACCGACAC,relative integration efficiency (log2),[1],-3.16 ± 0.25
same,relative integration efficiency (log2),[2],0.617 ± 0.13
ACATTTGTTGATACAACCATAAAATCATCATTACACCCATAAATTGATAATTATCACACCCCATTTAACTATAACGCTCTGATCATAGTCAGACCAACATTGCTACGACCCGTATTCGCACCGACAC,relative integration efficiency (log2),[1],-3.39 ± 0.35
same,relative integration efficiency (log2),[2],0.57 ± 0.096
ACATTTGTTGATACAACCATAAAATCATCATTACACCCATAAATTGATAATTATCCCACCCAATTTAACTATAACGCTCTGATCATAGTCAGACCAACATTGCTACGACCCGTATTCGCACCGACAC,relative integration efficiency (log2),[1],-3.07 ± 0.5
same,relative integration efficiency (log2),[2],0.728 ± 0.058
ACATTTGTTGATACAACCATAAAATCATCATTACACCCATAAATTGATAATTATCCCACCCCATTTAACTATAACGCTCTGATCATAGTCAGACCAACATTGCTACGACCCGTATTCGCACCGACAC,relative integration efficiency (log2),[1],-2.81 ± 0.49
same,relative integration efficiency (log2),[2],0.992 ± 0.31
ACATTTGTTGATACAACCATAAAATCATCATTACACCCATCAATTGATAATTATCACACCCAATTTAACTATAACGCTCTGATCATAGTCAGACCAACATTGCTACGACCCGTATTCGCACCGACAC,relative integration efficiency (log2),[1],-4.74 ± 0.38
same,relative integration efficiency (log2),[2],-0.508 ± 0.42
ACATTTGTTGATACAACCATAAAATCATCATTACACCCATCAATTGATAATTATCACACCCCATTTAACTATAACGCTCTGATCATAGTCAGACCAACATTGCTACGACCCGTATTCGCACCGACAC,relative integration efficiency (log2),[1],-4.88 ± 0.26
same,relative integration efficiency (log2),[2],-1.24 ± 0.14
ACATTTGTTGATACAACCATAAAATCATCATTACACCCATCAATTGATAATTATCCCACCCAATTTAACTATAACGCTCTGATCATAGTCAGACCAACATTGCTACGACCCGTATTCGCACCGACAC,relative integration efficiency (log2),[1],-4.67 ± 0.2
same,relative integration efficiency (log2),[2],-1.17 ± 0.061
ACATTTGTTGATACAACCATAAAATCATCATTACACCCATCAATTGATAATTATCCCACCCCATTTAACTATAACGCTCTGATCATAGTCAGACCAACATTGCTACGACCCGTATTCGCACCGACAC,relative integration efficiency (log2),[1],-4.36 ± 0.26
same,relative integration efficiency (log2),[2],-1.08 ± 0.22
ACATTTGTTGATACAACCATAAAATCATCATTACCCCCATAAATTGATAATTATCACACCCAATTTAACTATAACGCTCTGATCATAGTCAGACCAACATTGCTACGACCCGTATTCGCACCGACAC,relative integration efficiency (log2),[1],-4.04 ± 0.25
same,relative integration efficiency (log2),[2],-0.419 ± 0.52
ACATTTGTTGATACAACCATAAAATCATCATTACCCCCATAAATTGATAATTATCACACCCCATTTAACTATAACGCTCTGATCATAGTCAGACCAACATTGCTACGACCCGTATTCGCACCGACAC,relative integration efficiency (log2),[1],-3.71 ± 0.07
same,relative integration efficiency (log2),[2],-0.211 ± 0.014
ACATTTGTTGATACAACCATAAAATCATCATTACCCCCATAAATTGATAATTATCCCACCCAATTTAACTATAACGCTCTGATCATAGTCAGACCAACATTGCTACGACCCGTATTCGCACCGACAC,relative integration efficiency (log2),[1],-3.815 ± 0.027
same,relative integration efficiency (log2),[2],0.215 ± 0.23
ACATTTGTTGATACAACCATAAAATCATCATTACCCCCATAAATTGATAATTATCCCACCCCATTTAACTATAACGCTCTGATCATAGTCAGACCAACATTGCTACGACCCGTATTCGCACCGACAC,relative integration efficiency (log2),[1],-3.69 ± 0.077
same,relative integration efficiency (log2),[2],-0.0125 ± 0.058
ACATTTGTTGATACAACCATAAAATCATCATTACCCCCATCAATTGATAATTATCACACCCAATTTAACTATAACGCTCTGATCATAGTCAGACCAACATTGCTACGACCCGTATTCGCACCGACAC,relative integration efficiency (log2),[1],-5.41 ± 0.15
same,relative integration efficiency (log2),[2],-1.24 ± 0.5
ACATTTGTTGATACAACCATAAAATCATCATTACCCCCATCAATTGATAATTATCACACCCCATTTAACTATAACGCTCTGATCATAGTCAGACCAACATTGCTACGACCCGTATTCGCACCGACAC,relative integration efficiency (log2),[1],-5.76 ± 0.07
same,relative integration efficiency (log2),[2],-1.95 ± 0.53
ACATTTGTTGATACAACCATAAAATCATCATTACCCCCATCAATTGATAATTATCCCACCCAATTTAACTATAACGCTCTGATCATAGTCAGACCAACATTGCTACGACCCGTATTCGCACCGACAC,relative integration efficiency (log2),[1],-5.47 ± 0.095
same,relative integration efficiency (log2),[2],-1.26 ± 0.14
ACATTTGTTGATACAACCATAAAATCATCATTACCCCCATCAATTGATAATTATCCCACCCCATTTAACTATAACGCTCTGATCATAGTCAGACCAACATTGCTACGACCCGTATTCGCACCGACAC,relative integration efficiency (log2),[1],-5.09 ± 0.14
same,relative integration efficiency (log2),[2],-1.6 ± 0.036
ACATTTGTTGATACAACCATAAAATCATCATTCACCCATAAATTGATAATTATCACACCCACATTTAACTATAACGCTCTGATCATAGTCAGACCAACATTGCTACGACCCGTATTCGCACCGACAC,relative integration efficiency (log2),[1],-5.68 ± 0.095
same,relative integration efficiency (log2),[2],-1.73 ± 0.67
ACATTTGTTGATACAACCATAAAATCATCATTCACCCCTAAATTGATAATTATCACACCCACATTTAACTATAACGCTCTGATCATAGTCAGACCAACATTGCTACGACCCGTATTCGCACCGACAC,relative integration efficiency (log2),[1],-5.66 ± 0.14
same,relative integration efficiency (log2),[2],-1.37 ± 0.066
ACATTTGTTGATACAACCATAAAATCATTATTACACCCATTAATTGATAATTATCACACCCAATTTAACTATAACGCTCTGATCATAGTCAGACCAACATTGCTACGACCCGTATTCGCACCGACAC,relative integration efficiency (log2),[1],-3.73 ± 0.33
same,relative integration efficiency (log2),[2],0.129 ± 0.18
ACATTTGTTGATACAACCATAAAATCTATATTACACCCATAAATTGATAATTATCACACCCATAAATTGATATTGCCTCTGATCATAGTCAGACCAACATTGCTACGACCCGTATTCGCACCGACAC,relative integration efficiency (log2),[1],-1.55 ± 0.21
same,relative integration efficiency (log2),[2],-1.85 ± 0.057
ACATTTGTTGATACAACCATAAAATCTTAATTACACCCATAAATTGATAATTATCACACCCATAAATTGATATTGCCTCTGATCATAGTCAGACCAACATTGCTACGACCCGTATTCGCACCGACAC,relative integration efficiency (log2),[1],-1.973 ± 0.011
same,relative integration efficiency (log2),[2],-1.09 ± 0.22
ACATTTGTTGATACAACCATAAAATGAAAATTACACCCATAAATTGAAAATTATCACACCCATAAATTGAAATTGCCTCTGATCATAGTCAGACCAACATTGCTACGACCCGTATTCGCACCGACAC,relative integration efficiency (log2),[1],-1.13 ± 0.26
same,relative integration efficiency (log2),[2],0.0682 ± 0.25
ACATTTGTTGATACAACCATAAAATGAATATTACACCCATAAATTGATAATTATCACACCCATAAATTGATATTGCCTCTGATCATAGTCAGACCAACATTGCTACGACCCGTATTCGCACCGACAC,relative integration efficiency (log2),[1],-0.772 ± 0.072
same,relative integration efficiency (log2),[2],-0.52 ± 0.4
